The results in this text go back to publication PMC11984393.

The target of this data set is CD8 (T-cell surface marker) (Mus musculus) (UniProt P01731). Kind of data set: flow cytometry. Conditions: 30 min, live-cell binding, 30 min incubation, buffer, salt, pH and temperature not given in the material. Background: In flow cytometry, cells or beads pass a laser one at a time.
UniProt P01731, sequence (P01731 whole entry): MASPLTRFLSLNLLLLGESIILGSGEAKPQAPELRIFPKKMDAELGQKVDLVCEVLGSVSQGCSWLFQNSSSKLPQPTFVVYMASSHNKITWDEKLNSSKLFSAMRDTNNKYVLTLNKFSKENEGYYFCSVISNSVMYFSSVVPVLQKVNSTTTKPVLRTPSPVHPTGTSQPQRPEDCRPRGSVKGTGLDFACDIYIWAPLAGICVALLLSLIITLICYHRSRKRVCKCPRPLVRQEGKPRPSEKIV

Consider “TTTTTTTTTTCCAGAGTGACGCAGCAACAGAGGTGTAGAAGTACACGTGAACAAGCTTGAAATTGTCTCCGACAGAGGTGGACACGGTGGCTTTTAGT [Apt-CD8-FAM]”, for which the binding signal (% positive cells) worked out at 44.4.

As to “TTTTTAAGTAATGTATTTAAATTGCGAACTACTACTCTCTCTATATATTGCGAACTACTACTCTCTCTATATTAAAGGAAGGATCTCA [Apt-random-FAM]”, the binding signal (% positive cells) (negative control) turned out to be 0.74.
